B4: biotinylated N-terminal cysteine-containing neoepitope peptide (peptide)
peptide: C([Maleimide-PEG2′-Biotin])TEEISEVKM
notes: also called biotinylated peptide; biotynylated peptide
B5: anti-neoepitope antibody 4G4 (antibody, IgG2a, V domains shown)
VH: EMKLVESGGGLVEPGGSLKLSCAASGFTFSNYAMSWVRQTPDKRLEWVASIGRGGSTFYPDSVKGRFTISRDRVRNILYLQMNSLRSEDTAIYYCRVIYSQSISFDYWGQGTTLTVSS
VL: not shown
notes: It was biotinylated when used as capture antibody in the sandwich ELISA; also called anti-sAPP β monoclonal antibody (4G4)

Test [1] deals with T1, anti-internal structure antibody 5H10.
T1 construct: also called internal antibody 5H10; internal structural antibody
T1 sequence (VH, as listed by the source, chain 1 of 2): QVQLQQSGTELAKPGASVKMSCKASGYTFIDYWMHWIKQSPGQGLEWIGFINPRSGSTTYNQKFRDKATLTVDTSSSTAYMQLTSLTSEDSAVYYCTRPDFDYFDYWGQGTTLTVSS
T1 sequence (VL, as listed by the source, chain 2 of 2): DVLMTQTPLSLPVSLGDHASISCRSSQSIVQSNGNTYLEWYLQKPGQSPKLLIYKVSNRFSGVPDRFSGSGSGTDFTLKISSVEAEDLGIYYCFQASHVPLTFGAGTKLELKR
As to the kind of experiment: competitive ELISA of 5H10, unlabelled peptide varied against the biotinylated internal structural peptide. The method, then: Reactivity of the antibody, 5H10 to the four fragment peptides 1˜4 (SEQ ID No.: 8, 9, 10, 11) was evaluated by competitive ELISA in the same method as Example 1.
For orientation: In an ELISA, binding on a coated surface is turned into a signal by an enzyme label.

Test [2] concerns the target B5. As to the kind of experiment: competitive ELISA: 4G4 captured on anti-mouse IgG plate, unlabelled immunogen peptide (SEQ ID No. 2) varied against the biotinylated neoepitope peptide with streptavidin-HRP. The method, then: 10 μl of the antibody solution containing 4G4 and 10 μl of the immunogen peptide (SEQ ID No.:2) or the long peptide ([…] SEQ ID No. 3 SIGMA) or human sAPPβ (MESO SCALE DISCOVERY) or human sAPPα (MESO SCALE DISCOVERY) and 10 μl of 0.04 ng the biotynylated peptide and 2 ng streptavidin-HRP in buffer A were placed into the above anti-mouse IgG-immobilized plates and incubated overnight at 4° C. The plates were washed three times and 25 μl of TMB substrate solution (DAKO) was added and incubated for 30 min. The reaction was finally stopped by addition of 25 μl of 0.05NH2SO4, and optical absorbance was measured at wavelength of 450 nm (FIG. 3).

Test [3] addresses B4. As to the kind of experiment: screening ELISA: hybridoma supernatant on anti-mouse IgG plate, biotinylated peptide and streptavidin-HRP.

Groups on a side chain read outwards from the residue. Primed or numbered codes have the meaning given here. No end group written: not given here. *: point of attachment. Biotin = O=C1N[C@H]2[C@H](CS[C@H]2CCCCC(=O)*)N1; PEG2′ = not defined here

B1: Fragment 3 (peptide)
peptide: RPAADRGLTTRP
notes: partial peptide of the 5H10 immunogen; also called fragment peptide 3
Take B1: the binding result in test [1] is reported as “no binding (tested: about 150 nM)”.

B2: Immunogen peptide (peptide)
peptide: DSVPANTENEVEPVDARPAADRGLTTRPGSGLTNC
notes: also called C-terminal cysteine-containing internal structural peptide; Immunogen 2 peptide
B2: the binding result in test [1] is “binds”.

B3: Fragment 1 (peptide)
peptide: DSVPANTENEVE
notes: partial peptide of the 5H10 immunogen; also called fragment peptide 1
On to B3, for which the binding result in test [1] was “no binding (tested: about 150 nM)”.
Take B4: in test [2], the binding result is “binds”.
Turning to B5, the binding result in test [3] was “binds”.

B6: Fragment 2 (peptide)
peptide: NEVEPVDARPAA
notes: partial peptide of the 5H10 immunogen; also called fragment peptide 2
For the molecule B6, the binding result in test [1] was “no binding (tested: about 150 nM)”.

(Values after US20150111231A1 (SHIONOGI, published 2015).)
